Publication PMC2926592

What was measured:
[1] = target: human XRCC1 R109A variant, recombinant, S-peptide- and His-tagged (human) (UniProt P18887); assay: pull-down
[2] = target: human XRCC1 P161L population variant, recombinant, S-peptide- and His-tagged (human) (UniProt P18887); assay: pull-down

DNA polymerase β (POLβ), recombinant (from UniProt P06746 1-335) (enzyme)
fold decrease in POLβ retention against WT XRCC1 [1]: 5 fold | percent decrease in POLβ retention against WT XRCC1 [1]: 83% | percent decrease in POLβ retention against WT XRCC1 [2]: 20%
